Bridge positions count the residues as written; N and C are the ends. Ends that are not written are not given here.
Columns and labels:
[1] = target: T1, rat collagen (acid soluble, type I, rat tail, Upstate 08-115) (rat, UniProt P02454 152-1207; P02466 86-1125); assay: dried collagen assay
T1 construct: gelled and dried as a fibril film in the dried collagen assay; also called dried rat collagen; insoluble rat collagen

[2] = target: T2, human collagen type I (acid soluble, extracted from placenta, Sigma C7774) (human, UniProt P02452 162-1218; P08123 80-1119); assay: dried collagen assay
T2 construct: gelled and dried as a fibril film in the dried collagen assay; also called dried human collagen; h-Collagen
T2 sequence (P02452 162-1218 limits assumed, chain 1 of 2): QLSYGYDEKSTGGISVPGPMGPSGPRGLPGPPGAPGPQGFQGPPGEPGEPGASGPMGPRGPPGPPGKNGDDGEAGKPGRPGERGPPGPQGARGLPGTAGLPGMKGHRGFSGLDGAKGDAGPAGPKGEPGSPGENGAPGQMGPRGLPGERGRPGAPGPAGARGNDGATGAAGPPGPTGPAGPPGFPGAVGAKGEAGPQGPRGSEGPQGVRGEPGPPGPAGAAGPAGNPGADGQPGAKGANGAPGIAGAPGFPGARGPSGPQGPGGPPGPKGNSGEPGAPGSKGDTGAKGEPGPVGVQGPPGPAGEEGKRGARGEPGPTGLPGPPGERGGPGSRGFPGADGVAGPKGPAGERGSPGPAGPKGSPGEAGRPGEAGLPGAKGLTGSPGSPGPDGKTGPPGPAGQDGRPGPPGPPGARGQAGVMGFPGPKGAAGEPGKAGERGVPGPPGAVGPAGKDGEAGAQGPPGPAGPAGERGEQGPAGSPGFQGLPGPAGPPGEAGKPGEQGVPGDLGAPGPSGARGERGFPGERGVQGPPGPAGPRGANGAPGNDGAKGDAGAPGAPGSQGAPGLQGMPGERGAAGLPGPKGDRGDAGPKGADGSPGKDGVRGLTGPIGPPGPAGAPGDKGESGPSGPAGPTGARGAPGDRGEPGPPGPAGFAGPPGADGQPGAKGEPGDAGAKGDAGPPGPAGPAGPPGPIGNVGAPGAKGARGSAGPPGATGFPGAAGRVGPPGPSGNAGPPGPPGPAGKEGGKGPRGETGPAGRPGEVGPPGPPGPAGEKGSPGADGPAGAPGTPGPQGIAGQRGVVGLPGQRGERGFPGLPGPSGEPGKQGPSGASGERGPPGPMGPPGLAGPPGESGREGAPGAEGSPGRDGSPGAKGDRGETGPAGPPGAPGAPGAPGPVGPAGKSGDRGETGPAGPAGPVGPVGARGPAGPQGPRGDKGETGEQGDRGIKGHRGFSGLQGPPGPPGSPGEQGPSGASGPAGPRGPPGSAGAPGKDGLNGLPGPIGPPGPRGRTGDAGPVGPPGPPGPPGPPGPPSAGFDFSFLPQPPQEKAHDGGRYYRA
T2 sequence (P08123 80-1119 limits assumed, chain 2 of 2): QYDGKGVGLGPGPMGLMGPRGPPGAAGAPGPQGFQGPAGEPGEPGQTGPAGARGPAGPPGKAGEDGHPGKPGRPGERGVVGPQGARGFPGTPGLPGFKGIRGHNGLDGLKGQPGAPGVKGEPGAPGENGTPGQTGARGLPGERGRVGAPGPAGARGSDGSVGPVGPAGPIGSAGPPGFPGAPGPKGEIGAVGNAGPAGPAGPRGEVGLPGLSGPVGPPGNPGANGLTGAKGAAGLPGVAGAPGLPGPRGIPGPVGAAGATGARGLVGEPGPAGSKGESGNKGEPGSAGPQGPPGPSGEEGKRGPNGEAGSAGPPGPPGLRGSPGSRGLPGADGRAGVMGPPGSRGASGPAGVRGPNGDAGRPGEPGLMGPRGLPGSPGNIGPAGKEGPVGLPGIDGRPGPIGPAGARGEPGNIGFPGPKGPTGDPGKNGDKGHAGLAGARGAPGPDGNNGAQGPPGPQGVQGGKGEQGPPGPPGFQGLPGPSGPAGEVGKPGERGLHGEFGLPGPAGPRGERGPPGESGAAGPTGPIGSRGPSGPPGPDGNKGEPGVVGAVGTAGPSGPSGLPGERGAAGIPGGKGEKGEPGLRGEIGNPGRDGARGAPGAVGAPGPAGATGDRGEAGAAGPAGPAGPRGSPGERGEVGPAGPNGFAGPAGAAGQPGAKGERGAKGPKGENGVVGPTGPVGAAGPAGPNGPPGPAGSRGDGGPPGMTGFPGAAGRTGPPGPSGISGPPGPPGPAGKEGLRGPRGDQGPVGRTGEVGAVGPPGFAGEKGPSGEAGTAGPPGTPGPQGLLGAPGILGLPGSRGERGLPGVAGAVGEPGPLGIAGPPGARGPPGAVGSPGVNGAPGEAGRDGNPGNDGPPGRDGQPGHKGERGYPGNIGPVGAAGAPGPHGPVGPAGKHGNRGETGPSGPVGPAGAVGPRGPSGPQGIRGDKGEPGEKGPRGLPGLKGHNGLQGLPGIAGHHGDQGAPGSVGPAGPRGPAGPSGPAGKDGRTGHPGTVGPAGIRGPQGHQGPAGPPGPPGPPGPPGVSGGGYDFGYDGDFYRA

T1 sequence (P02454 152-1207, chain 1 of 2): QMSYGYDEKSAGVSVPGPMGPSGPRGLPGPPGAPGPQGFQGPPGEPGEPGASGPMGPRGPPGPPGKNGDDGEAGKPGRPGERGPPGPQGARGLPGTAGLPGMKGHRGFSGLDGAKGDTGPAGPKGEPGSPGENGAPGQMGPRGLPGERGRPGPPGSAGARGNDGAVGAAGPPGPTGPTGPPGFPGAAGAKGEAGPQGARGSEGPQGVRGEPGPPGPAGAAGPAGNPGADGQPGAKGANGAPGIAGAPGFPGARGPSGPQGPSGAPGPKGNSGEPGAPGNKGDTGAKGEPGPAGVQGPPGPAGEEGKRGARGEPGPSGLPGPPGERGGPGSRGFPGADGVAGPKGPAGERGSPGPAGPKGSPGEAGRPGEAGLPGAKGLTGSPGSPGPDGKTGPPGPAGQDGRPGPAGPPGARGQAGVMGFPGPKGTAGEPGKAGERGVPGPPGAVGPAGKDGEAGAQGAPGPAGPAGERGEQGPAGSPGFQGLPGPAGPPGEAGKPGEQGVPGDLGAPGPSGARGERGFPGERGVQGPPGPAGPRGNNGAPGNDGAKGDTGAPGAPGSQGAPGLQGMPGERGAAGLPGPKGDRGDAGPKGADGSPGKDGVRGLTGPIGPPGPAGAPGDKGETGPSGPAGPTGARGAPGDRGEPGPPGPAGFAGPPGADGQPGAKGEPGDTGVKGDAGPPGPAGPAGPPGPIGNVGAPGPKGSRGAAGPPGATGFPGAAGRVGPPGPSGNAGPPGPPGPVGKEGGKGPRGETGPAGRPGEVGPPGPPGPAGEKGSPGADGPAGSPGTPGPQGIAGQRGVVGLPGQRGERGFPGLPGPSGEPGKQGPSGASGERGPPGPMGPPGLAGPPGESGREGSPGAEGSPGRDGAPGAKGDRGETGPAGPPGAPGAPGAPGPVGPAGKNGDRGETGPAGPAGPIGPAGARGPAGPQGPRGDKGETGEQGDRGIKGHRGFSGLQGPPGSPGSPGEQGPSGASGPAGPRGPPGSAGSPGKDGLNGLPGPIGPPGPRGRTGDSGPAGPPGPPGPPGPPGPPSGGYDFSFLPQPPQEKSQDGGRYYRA
T1 sequence (P02466 86-1125, chain 2 of 2): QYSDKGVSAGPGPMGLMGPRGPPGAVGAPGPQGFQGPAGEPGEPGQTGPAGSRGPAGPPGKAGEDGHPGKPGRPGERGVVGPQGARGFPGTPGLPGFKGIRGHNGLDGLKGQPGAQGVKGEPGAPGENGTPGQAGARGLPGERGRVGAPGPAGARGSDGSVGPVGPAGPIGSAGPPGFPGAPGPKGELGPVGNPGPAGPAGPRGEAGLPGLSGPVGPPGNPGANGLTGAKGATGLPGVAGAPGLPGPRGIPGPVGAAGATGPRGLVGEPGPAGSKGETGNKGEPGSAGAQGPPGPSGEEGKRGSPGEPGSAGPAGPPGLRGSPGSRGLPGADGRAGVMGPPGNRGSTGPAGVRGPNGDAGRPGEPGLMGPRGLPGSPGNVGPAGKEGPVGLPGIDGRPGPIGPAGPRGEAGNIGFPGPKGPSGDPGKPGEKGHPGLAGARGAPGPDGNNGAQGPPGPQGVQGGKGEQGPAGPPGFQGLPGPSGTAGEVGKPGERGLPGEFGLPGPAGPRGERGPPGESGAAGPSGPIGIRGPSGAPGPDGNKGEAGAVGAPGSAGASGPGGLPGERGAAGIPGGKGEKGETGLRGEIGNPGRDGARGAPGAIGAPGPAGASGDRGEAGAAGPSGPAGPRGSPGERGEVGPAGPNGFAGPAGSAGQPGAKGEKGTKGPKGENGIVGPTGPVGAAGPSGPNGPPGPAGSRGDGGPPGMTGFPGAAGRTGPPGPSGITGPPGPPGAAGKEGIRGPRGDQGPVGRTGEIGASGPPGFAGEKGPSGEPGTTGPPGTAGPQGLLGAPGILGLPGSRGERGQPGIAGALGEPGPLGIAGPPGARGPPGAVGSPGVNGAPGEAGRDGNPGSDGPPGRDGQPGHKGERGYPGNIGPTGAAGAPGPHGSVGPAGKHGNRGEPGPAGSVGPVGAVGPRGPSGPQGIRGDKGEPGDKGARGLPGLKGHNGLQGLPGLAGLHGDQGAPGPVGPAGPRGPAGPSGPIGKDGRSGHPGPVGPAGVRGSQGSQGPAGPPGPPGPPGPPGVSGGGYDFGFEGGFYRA

Binder	% Collagen Binding [1]	% Collagen Binding [2]
YHACYQAGCYIW (disulfide 4-9; not fully specified (C-terminus)) [SEQ ID NO: 107]	6%	–
YHASYQAGSWIW (not fully specified) [SEQ ID NO: 111]	24%	0%

— patent US20080058636A1 (EPIX PHARMACEUTICALS, published 2008)
